Assay results: US20180179267A1 (published 2018)

Experiments:
LukGH_H19 = molecular target: T1, LukGH_H19; assay: ForteBio
T1 chain 1: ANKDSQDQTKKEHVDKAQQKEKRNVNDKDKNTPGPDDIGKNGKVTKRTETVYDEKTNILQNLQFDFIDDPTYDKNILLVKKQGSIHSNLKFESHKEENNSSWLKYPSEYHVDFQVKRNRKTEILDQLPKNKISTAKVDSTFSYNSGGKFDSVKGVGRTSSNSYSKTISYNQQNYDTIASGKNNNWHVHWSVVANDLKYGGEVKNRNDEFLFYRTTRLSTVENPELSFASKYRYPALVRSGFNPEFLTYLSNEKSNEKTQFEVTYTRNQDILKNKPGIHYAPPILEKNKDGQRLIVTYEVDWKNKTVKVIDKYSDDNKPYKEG
T1 chain 2: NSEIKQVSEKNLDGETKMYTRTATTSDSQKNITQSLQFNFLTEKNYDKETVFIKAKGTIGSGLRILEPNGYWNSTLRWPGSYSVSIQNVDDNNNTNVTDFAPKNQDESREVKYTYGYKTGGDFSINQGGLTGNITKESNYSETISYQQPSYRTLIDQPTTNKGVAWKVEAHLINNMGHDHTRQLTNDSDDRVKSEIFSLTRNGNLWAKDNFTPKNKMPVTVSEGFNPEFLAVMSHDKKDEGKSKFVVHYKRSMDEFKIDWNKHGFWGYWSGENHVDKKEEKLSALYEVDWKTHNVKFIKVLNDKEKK

LukGH_MSHR1132 = molecular target: T2, LukGH_MSHR1132; assay: ForteBio
T2 chain 1: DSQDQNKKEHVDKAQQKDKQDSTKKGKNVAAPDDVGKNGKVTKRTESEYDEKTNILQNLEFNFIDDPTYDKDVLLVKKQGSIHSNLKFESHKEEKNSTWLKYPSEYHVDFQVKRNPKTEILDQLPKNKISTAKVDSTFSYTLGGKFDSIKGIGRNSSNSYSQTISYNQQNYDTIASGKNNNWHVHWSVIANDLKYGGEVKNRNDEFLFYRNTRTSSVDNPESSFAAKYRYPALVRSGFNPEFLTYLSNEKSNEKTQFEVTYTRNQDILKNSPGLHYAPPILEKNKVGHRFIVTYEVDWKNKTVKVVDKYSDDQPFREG
T2 chain 2: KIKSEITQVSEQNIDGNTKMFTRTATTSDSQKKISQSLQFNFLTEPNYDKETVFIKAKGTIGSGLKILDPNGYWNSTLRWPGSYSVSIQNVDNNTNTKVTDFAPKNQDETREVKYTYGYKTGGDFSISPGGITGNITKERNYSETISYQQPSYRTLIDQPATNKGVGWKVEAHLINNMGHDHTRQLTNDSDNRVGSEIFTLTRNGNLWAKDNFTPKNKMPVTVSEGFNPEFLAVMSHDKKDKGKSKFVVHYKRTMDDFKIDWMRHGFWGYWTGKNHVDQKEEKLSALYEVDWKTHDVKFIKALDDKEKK

LukG_TCH1516 [1] = molecular target: T3, LukG_TCH1516; assay: ForteBio
T3 chain: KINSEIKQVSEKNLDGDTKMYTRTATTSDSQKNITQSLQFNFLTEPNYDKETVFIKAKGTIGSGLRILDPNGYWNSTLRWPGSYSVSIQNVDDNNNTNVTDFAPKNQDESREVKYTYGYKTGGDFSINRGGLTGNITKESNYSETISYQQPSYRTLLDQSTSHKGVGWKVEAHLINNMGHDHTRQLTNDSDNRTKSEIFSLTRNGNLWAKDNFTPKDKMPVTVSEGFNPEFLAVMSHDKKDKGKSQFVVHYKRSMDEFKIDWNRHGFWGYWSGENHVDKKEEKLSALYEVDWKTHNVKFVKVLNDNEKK

LukGH_MRSA252 = molecular target: T4, LukGH_MRSA252; assay: ForteBio
T4 chain 1: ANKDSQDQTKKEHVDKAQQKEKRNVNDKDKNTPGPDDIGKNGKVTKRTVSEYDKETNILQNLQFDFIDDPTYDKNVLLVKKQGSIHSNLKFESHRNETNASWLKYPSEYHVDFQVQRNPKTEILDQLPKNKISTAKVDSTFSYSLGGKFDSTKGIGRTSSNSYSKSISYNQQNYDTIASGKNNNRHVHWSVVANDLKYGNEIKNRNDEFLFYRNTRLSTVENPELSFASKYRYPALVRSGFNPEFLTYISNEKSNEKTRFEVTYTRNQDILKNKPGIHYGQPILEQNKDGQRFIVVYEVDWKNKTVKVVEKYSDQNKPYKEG
T4 chain 2: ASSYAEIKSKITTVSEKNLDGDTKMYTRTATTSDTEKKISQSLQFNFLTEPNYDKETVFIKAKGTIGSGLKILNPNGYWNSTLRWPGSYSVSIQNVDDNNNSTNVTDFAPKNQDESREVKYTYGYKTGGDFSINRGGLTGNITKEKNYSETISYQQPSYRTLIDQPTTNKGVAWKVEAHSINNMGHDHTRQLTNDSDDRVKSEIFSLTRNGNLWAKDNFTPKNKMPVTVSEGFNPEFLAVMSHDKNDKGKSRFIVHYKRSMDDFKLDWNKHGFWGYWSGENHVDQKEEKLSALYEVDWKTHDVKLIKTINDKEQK

[2] = molecular target: T5, LukGH of S. aureus USA300 TCH1516 (UniProt Q2FFA2 28-351; P21224 30-338); assay: ForteBio
T5 chain 1: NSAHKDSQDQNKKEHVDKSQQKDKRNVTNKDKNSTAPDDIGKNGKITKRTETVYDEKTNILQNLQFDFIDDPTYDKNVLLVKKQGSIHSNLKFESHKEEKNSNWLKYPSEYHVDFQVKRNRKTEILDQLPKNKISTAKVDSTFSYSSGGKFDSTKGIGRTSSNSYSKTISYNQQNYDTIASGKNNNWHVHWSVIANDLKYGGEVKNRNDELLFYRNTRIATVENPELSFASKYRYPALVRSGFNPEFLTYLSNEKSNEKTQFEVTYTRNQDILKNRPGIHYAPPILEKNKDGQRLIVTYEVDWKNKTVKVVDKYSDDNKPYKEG
T5 chain 2: T3 chain

LukG_TCH1516 [3] = molecular target: T3, LukG_TCH1516; assay: MSD; Fab
[4] = molecular target: T5, LukGH of S. aureus USA300 TCH1516; assay: MSD; Fab

B1: AB-30-3 (antibody, V domains shown)
VH: QVQLVQSGAEVKKPGSSVKVSCKASGGTFSSYAISWVRQAPGQGLEWMGVIEPIFGFANYAQKFQGRVTITADESTSTAYMELSSLRSEDTAVYYCARDAGCSSTSCHKDVYFDYWGQGTLVTVSS
VL: DIQMTQSPSSLSASVGDRVTITCRASQSISSYLNWYQQKPGKAPKLLIYGASSLQSGVPSRFSGSGSGTDFTLTISSLQPEDFATYYCQQAYYPPWTFGGGTKVEIKR
In the case of B1, the Kd (LukGH_H19) is reported as 0.22 nM, the Kd (LukGH_MSHR1132) is reported as 0.39 nM and the Kd (LukG_TCH1516 [1]) is reported as 15.5 nM. The Kd (LukGH_MRSA252) was 0.28 nM, the Kd [2] was 0.24 nM and the Kd (LukG_TCH1516 [3]) was 0.046 nM. The Kd [4] was 0.0005 nM.

B2: AB-31 (antibody, V domains shown)
VH: EVQLVESGGGLVQPGRSLRLSCAASGFTFYDYNMHWVRQAPGKGLEWVSGISWNSGSIAYADSVKGRFTISRDNAKNSLYLQMNSLRAEDTALYYCAKAQKGTAFDIWGQGTMVTVSS
VL: DIQMTQSPSSLSASVGDRVTITCQASQDITNYLNWYQQKPGKAPKLLIYDASNLETGVPSRFSGSGSGTDFTFTISSLQPEDIATYYCQQYPVYPPTFGGGTKVEIKR
Work on B2 yielded a Kd (LukGH_H19) of 0.24 nM, a Kd (LukGH_MSHR1132) of 0.25 nM and a Kd (LukG_TCH1516 [1]) of 9.7 nM. For the same binder, the Kd (LukGH_MRSA252) was 0.25 nM, the Kd [2] was < 0.1 nM and the Kd (LukG_TCH1516 [3]) was 0.12 nM. It also gave a Kd [4] of 0.00052 nM.
